T1: QP093 (human SIRPα V1 ECD(E31-R370)-mFC(IgG2a)) (human)
T1 construct: also called Human SIRPα V1 recombinant protein (QP093)
T1 chain: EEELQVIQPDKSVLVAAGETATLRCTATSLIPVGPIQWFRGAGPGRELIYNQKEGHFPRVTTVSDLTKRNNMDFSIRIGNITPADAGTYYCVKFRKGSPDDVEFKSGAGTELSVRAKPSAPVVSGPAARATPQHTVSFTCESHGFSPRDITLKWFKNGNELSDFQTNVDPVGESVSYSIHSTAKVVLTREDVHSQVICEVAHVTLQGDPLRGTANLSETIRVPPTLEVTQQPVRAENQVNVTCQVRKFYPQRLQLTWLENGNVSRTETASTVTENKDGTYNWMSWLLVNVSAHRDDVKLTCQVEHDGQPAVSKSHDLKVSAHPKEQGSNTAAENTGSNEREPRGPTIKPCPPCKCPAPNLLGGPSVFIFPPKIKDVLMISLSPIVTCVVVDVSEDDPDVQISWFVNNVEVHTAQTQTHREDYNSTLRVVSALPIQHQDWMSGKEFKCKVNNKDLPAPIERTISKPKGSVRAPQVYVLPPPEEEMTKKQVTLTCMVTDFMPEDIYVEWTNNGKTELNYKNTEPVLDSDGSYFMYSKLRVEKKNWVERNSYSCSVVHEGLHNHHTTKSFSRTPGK

T2: QP535 (SIRPαV6-mFC(mIgG2a)) (human, limits assumed)
T2 construct: also called human SIRPα V6 recombinant protein (QP535)
T2 chain: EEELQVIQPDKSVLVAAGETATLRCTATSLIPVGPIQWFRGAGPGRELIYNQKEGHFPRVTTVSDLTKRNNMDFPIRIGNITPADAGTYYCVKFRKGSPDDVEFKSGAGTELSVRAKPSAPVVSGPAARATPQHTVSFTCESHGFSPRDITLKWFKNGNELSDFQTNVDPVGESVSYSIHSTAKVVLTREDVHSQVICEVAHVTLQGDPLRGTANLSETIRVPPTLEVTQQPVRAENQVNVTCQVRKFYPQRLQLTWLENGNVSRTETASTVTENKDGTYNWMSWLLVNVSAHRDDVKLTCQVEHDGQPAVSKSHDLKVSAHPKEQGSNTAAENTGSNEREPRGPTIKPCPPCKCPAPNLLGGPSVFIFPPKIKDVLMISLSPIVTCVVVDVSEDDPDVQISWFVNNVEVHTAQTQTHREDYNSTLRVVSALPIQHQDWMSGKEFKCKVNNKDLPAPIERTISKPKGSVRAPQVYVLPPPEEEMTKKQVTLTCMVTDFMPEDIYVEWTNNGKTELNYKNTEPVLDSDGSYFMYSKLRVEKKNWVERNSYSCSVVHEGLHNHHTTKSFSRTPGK

T3: SIRPα V5 fusion Fc (mouse IgG2a) (human, limits assumed)
T3 chain: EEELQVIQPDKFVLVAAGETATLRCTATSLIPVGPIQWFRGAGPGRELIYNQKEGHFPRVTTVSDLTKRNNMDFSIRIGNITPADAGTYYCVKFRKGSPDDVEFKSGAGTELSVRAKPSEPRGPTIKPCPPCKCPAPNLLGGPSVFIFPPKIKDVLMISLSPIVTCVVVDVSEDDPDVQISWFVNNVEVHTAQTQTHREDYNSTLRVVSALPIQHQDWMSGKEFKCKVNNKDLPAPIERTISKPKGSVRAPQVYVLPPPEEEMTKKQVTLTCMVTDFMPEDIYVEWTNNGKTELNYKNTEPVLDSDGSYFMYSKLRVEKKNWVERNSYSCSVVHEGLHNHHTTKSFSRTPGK

T4: SIRPα V6 fusion Fc (mouse IgG2a) (human, limits assumed)
T4 chain: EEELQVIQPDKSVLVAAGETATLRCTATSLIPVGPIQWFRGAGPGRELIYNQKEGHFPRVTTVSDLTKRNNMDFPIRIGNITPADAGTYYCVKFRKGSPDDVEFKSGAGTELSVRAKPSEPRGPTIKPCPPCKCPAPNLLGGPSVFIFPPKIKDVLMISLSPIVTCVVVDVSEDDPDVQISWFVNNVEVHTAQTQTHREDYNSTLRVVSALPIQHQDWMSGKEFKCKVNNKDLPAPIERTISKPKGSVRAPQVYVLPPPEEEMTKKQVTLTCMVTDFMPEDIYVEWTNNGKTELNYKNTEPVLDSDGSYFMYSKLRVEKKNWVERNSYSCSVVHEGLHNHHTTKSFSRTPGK

T5: SIRPα V1 fusion Fc (mouse IgG2a) (human, limits assumed)
T5 chain: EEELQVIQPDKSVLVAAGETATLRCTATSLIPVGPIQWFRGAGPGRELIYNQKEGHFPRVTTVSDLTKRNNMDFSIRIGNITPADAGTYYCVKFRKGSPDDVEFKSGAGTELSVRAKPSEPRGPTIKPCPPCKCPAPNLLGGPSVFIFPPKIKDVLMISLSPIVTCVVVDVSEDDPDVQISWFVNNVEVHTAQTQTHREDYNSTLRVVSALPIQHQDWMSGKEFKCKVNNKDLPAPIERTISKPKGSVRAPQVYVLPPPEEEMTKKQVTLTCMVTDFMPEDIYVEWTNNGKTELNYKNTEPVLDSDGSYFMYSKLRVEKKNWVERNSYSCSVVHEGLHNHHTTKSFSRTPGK


What was measured:
[1] = target: T1, QP093 (human SIRPα V1 …); assay: ELISA, human SIRPα V1 recombinant protein (QP093) coated, HRP anti-human Fc detection
[2] = target: T6, human SIRPα V2 on THP-1 cells (human, UniProt P78324 31-504); assay: FACS on THP-1 cells
T6 construct: whole, on cells; also called THP-1 (human SIRPα V2)
T6 sequence (P78324 other isoform, or with tags, fused parts or gaps limits assumed): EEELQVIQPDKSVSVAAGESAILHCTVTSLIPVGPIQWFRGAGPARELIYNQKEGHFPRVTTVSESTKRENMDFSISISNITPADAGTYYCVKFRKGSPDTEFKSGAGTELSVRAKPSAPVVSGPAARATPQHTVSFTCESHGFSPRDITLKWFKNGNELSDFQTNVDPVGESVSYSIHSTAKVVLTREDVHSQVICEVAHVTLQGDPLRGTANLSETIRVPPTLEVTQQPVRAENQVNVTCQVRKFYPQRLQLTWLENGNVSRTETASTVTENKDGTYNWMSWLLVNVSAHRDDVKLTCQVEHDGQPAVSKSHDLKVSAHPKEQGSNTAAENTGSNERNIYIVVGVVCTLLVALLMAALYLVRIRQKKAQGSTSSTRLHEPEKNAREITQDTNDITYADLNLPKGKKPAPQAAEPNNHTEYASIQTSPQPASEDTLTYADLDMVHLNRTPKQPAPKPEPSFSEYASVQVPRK

[3] = target: T7, QP537 (SIRPαV8-mFC(mIgG2a)) (human); assay: ELISA, human SIRPα V8 recombinant protein (QP537) coated, HRP anti-human Fc detection
T7 construct: also called human SIRPα V8 recombinant protein (QP537)

[4] = target: T8, QP536 (SIRPαV7-mFC(mIgG2a)) (human); assay: ELISA, human SIRPα V7 recombinant protein (QP536) coated, HRP anti-human Fc detection
T8 construct: also called human SIRPα V7 recombinant protein (QP536)

[5] = target: T2, QP535 (SIRPαV6-mFC(mIgG2a)); assay: ELISA, human SIRPα V6 recombinant protein (QP535) coated, HRP anti-human Fc detection
[6] = target: T3, SIRPα V5 fusion Fc (mouse IgG2a); assay: ELISA, SIRPα V5-mouse IgG2a Fc coated, anti-hFab detection; unit from the x axis Log(Conc.(nM))
[7] = target: T4, SIRPα V6 fusion Fc (mouse IgG2a); assay: ELISA, SIRPα V6-mouse IgG2a Fc coated, anti-hFab detection; unit from the x axis Log(Conc.(nM))
[8] = target: T5, SIRPα V1 fusion Fc (mouse IgG2a); assay: ELISA, SIRPα V1-mouse IgG2a Fc coated, anti-hFab detection; unit from the x axis Log(Conc.(nM))

EC50 [1] [pM]	EC50 [2] [pM]	EC50 [3] [pM]	EC50 [4] [pM]	EC50 [5] [pM]	EC50 [6] [pM]	EC50 [7] [pM]	EC50 [8] [pM]	binding result [2]	Binder
177	210	908	247	273					QP37503751 (1H9 analog) (antibody, human IgG1, kappa, N297A, V domains shown, also called hz1H9 hIgG1(N297A)) VH: QVQLVQSGAEVKKPGASVKVSCKASGYTFTSYWITWVKQAPGQGLEWIGDIYPGSGSTNHIEKFKSKATLTVDTSISTAYMELSRLRSDDTAVYYCATGYGSSYGYFDYWGQGTLVTVSS VL: DIQMTQSPSSLSASVGDRVTITCRASENIYSYLAWYQQKPGKAPKLLIYTAKTLAEGVPSRFSGSGSGTDFTLTISSLQPEDFATYYCQHQYGPPFTFGQGTKLEIKR
					69.1	53	78.6		QP256279 (antibody, human IgG4, V domains shown, Human IgG4 heavy constant region and kappa CL) VH: QVQLVQSGAEVKKPGASVKVSCKASGYTFTNYWINWVRQAPGQGLEWIAMIDPSDSETHYNQIFKDRATLTTDTSTSTAYMELRSLRSDDTAVYYCAMDYGSLYAMDYWGRGTLVTVSS VL: DIVLTQSPDSLAVSLGERATINCRASQSVRSSGYNWIFWYQQKPGQPPKLLIYLASNRDSGVPDRFSGSGSGTDFTLTISSLQAEDVAVYYCQHSRELPTFGQGTKLEIK
161	74.3	341	176	224					QP32700279 (antibody, human IgG1, kappa, L234A L235A, V domains shown, also called SIRPα monoclonal antibody CHO71) VH: QVQLVQSGAEVKKPGASVKVSCKASGYTFTNYWINWVRQAPGQGLEWIAMIDPSDSETHYNQIFKDRATLTTDTSTSTAYMELRSLRSDDTAVYYCAMDYGSLYAMDYWGRGTLVTVSS VL: DIVLTQSPDSLAVSLGERATINCRASQSVRSSGYNWIFWYQQKPGQPPKLLIYLASNRDSGVPDRFSGSGSGTDFTLTISSLQAEDVAVYYCQHSRELPTFGQGTKLEIKR
438				884	130	114	154	no binding	QP250251 (18D5 analog) (antibody, human IgG4 S228P, kappa, V domains shown, also called SIRPα antibody 18D5 from OSE) VH: QVQLQQPGAELVRPGSSVKLSCKASGYTFTSYWVHWVKQRPIQGLEWIGNIDPSDSDTHYNQKFKDKASLTVDKSSSTAYMQLSSLTFEDSAVYYCVRGGTGTMAWFAYWGQGTLVTVSA VL: DVVMTQTPLSLPVSLGDQASISCRSSQSLVHSYGNTYLYWYLQKPGQSPKLLIYRVSNRFSGVPDRFSGSGSGTDFTLKISRVEAEDLGVYFCFQGTHVPYTFGSGTKLEIKR
442	261	689	376	603	144	119	160		QP026249 (KWAR23 analog) (antibody, human IgG4 S228P, kappa, also called KAWA23 analog; control antibody KWAR23 (QP026249), human IgG4) heavy: not shown light: QIVLTQSPAIMSASPGEKVTLTCSASSSVSSSYLYWYQQKPGSSPKLWIYSTSNLASGVPARFSGSGSGTSYSLTISSMEAEDAASYFCHQWSSYPRTFGAGTKLELKRTVAAPSVFIFPPSDEQLKSGTASVVCLLNNFYPREAKVQWKVDNALQSGNSQESVTEQDSKDSTYSLSSTLTLSKADYEKHKVYACEVTHQGLSSPVTKSFNRGEC

— patent US20250326840A1 (QURE BIOTECHNOLOGY SHANGHAI, published 2025)
